# B1: EEHEE_rd4_0363 (parent)
# chain: VTVDIKGMEYHFDNPEEAKKFAERMAKELGGELKVENGTLKVE
# Variants of: B1
# Assay: folding stability dG (cDNA display proteolysis); higher = more stable
# Details: PBS, room temperature
row,Variant,folding stability dG
1,VTVDIKGMEYHFDNPEEAKKFAERMAKELGGELKVENGTLKAE,0.786 kcal/mol
2,VTVDIKGMEYHFDNPEEAKKFAERMAKELGGELKVENGTLKEE,0.783 kcal/mol
3,VTVDIKGMEYHFDNPEEAKKFAERMAKELGGELKVENGTLKME,0.942 kcal/mol
4,VTVDIKGMEYHFDNPEEAKKFAERMAKELGGELKVENGTLKGE,0.841 kcal/mol
5,VTVDIKGMEYHFDNPEEAKKFAERMAKELGGELKVENGTLKLE,1.74 kcal/mol
6,VTVDIKGMEYHFDNPEEAKKFAERMAKELGGELKVENGTLKHE,0.832 kcal/mol
7,VTVDIKGMEYHFDNPEEAKKFAERMAKELGGELKVENGTLKDE,0.806 kcal/mol
8,VTVDIKGMEYHFDNPEEAKKFAERMAKELGGELKVENGTLKIE,2 kcal/mol
9,VTVDIKGMEYHFDNPEEAKKFAERMAKELGGELKVENGTLKFE,1.02 kcal/mol
10,VTVDIKGMEYHFDNPEEAKKFAERMAKELGGELKVENGTLKKE,0.582 kcal/mol
11,VTVDIKGMEYHFDNPEEAKKFAERMAKELGGELKVENGTLKCE,1.4 kcal/mol
12,VTVDIKGMEYHFDNPEEAKKFAERMAKELGGELKVENGTPKVE,0.807 kcal/mol
13,VTVDIKGMEYHFDNPEEAKKFAERMAKELGGELKVENGTKKVE,0.532 kcal/mol
14,VTVDIKGMEYHFDNPEEAKKFAERMAKELGGELKVENGTTKVE,0.992 kcal/mol
15,VTVDIKGMEYHFDNPEEAKKFAERMAKELGGELKVENGTFKVE,1.94 kcal/mol
16,VTVDIKGMEYHFDNPEEAKKFAERMAKELGGELKVENGTRKVE,0.347 kcal/mol
17,VTVDIKGMEYHFDNPEEAKKFAERMAKELGGELKVENGTGKVE,0.861 kcal/mol
18,VTVDIKGMEYHFDNPEEAKKFAERMAKELGGELKVENGTAKVE,0.864 kcal/mol
19,VTVDIKGMEYHFDNPEEAKKFAERMAKELGGELKVENGTSKVE,0.813 kcal/mol
20,VTVDIKGMEYHFDNPEEAKKFAERMAKELGGELKVENGTNKVE,0.85 kcal/mol
21,VTVDIKGMEYHFDNPEEAKKFAERMAKELGGELKVENGTQKVE,0.884 kcal/mol
22,VTVDIKGMEYHFDNPEEAKKFAERMAKELGGELKVENGTEKVE,0.788 kcal/mol
23,VTVDIKGMEYHFDNPEEAKKFAERMAKELGGELKVENGTMKVE,1.67 kcal/mol
24,VTVDIKGMEYHFDNPEEAKKFAERMAKELGGELKVENGTWKVE,2.28 kcal/mol

row,Variant,folding stability dG
1,VTVDIKGMEYHFDNPEEAKKFAERMAKELGGELKVENGTIKVE,2.6 kcal/mol
2,VTVDIKGMEYHFDNPEEAKKFAERMAKELGGELKVENGTYKVE,2.27 kcal/mol
3,VTVDIKGMEYHFDNPEEAKKFAERMAKELGGELKVENGTVKVE,1.35 kcal/mol
4,VTVDIKGMEYHFDNPEEAKKFAERMAKELGGELKVENGTCKVE,1.47 kcal/mol
5,VTVDIKGMEYHFDNPEEAKKFAERMAKELGGELKVENGTDKVE,0.757 kcal/mol
6,VTVDIKGMEYHFDNPEEAKKFAERMAKELGGELKVENGTHKVE,0.973 kcal/mol
7,VTVDIKGMEYHFDNPEEAKKFAERMAKELGGELKVENGTLNVE,0.986 kcal/mol
8,VTVDIKGMEYHFDNPEEAKKFAERMAKELGGELKVENGTLPVE,0.852 kcal/mol
9,VTVDIKGMEYHFDNPEEAKKFAERMAKELGGELKVENGTLEVE,0.957 kcal/mol
10,VTVDIKGMEYHFDNPEEAKKFAERMAKELGGELKVENGTLTVE,1.73 kcal/mol
11,VTVDIKGMEYHFDNPEEAKKFAERMAKELGGELKVENGTLCVE,1.64 kcal/mol
12,VTVDIKGMEYHFDNPEEAKKFAERMAKELGGELKVENGTLAVE,1.09 kcal/mol
13,VTVDIKGMEYHFDNPEEAKKFAERMAKELGGELKVENGTLHVE,1.61 kcal/mol
14,VTVDIKGMEYHFDNPEEAKKFAERMAKELGGELKVENGTLWVE,1.65 kcal/mol
15,VTVDIKGMEYHFDNPEEAKKFAERMAKELGGELKVENGTLIVE,2.1 kcal/mol
16,VTVDIKGMEYHFDNPEEAKKFAERMAKELGGELKVENGTLFVE,2 kcal/mol
17,VTVDIKGMEYHFDNPEEAKKFAERMAKELGGELKVENGTLMVE,1.63 kcal/mol
18,VTVDIKGMEYHFDNPEEAKKFAERMAKELGGELKVENGTLGVE,1.01 kcal/mol
19,VTVDIKGMEYHFDNPEEAKKFAERMAKELGGELKVENGTLSVE,1.45 kcal/mol
20,VTVDIKGMEYHFDNPEEAKKFAERMAKELGGELKVENGTLLVE,1.62 kcal/mol
21,VTVDIKGMEYHFDNPEEAKKFAERMAKELGGELKVENGTLVVE,2.02 kcal/mol
22,VTVDIKGMEYHFDNPEEAKKFAERMAKELGGELKVENGTLYVE,1.92 kcal/mol
23,VTVDIKGMEYHFDNPEEAKKFAERMAKELGGELKVENGTLQVE,1.24 kcal/mol
24,VTVDIKGMEYHFDNPEEAKKFAERMAKELGGELKVENGTLRVE,2.17 kcal/mol

row,Variant,folding stability dG
1,VTVDIKGMEYHFDNPEEAKKFAERMAKELGGELKVENGTLDVE,0.86 kcal/mol
2,VTVDIKGMEYHFDNPEEAKKFAERMAKELGGELKVECGTLKVE,2.07 kcal/mol
3,VTVDIKGMEYHFDNPEEAKKFAERMAKELGGELKVEFGTLKVE,1.41 kcal/mol
4,VTVDIKGMEYHFDNPEEAKKFAERMAKELGGELKVEYGTLKVE,1.19 kcal/mol
5,VTVDIKGMEYHFDNPEEAKKFAERMAKELGGELKVERGTLKVE,1.14 kcal/mol
6,VTVDIKGMEYHFDNPEEAKKFAERMAKELGGELKVEDGTLKVE,1.63 kcal/mol
7,VTVDIKGMEYHFDNPEEAKKFAERMAKELGGELKVEPGTLKVE,1.26 kcal/mol
8,VTVDIKGMEYHFDNPEEAKKFAERMAKELGGELKVEGGTLKVE,1.97 kcal/mol
9,VTVDIKGMEYHFDNPEEAKKFAERMAKELGGELKVETGTLKVE,1.18 kcal/mol
10,VTVDIKGMEYHFDNPEEAKKFAERMAKELGGELKVEHGTLKVE,1.52 kcal/mol
11,VTVDIKGMEYHFDNPEEAKKFAERMAKELGGELKVELGTLKVE,1.52 kcal/mol
12,VTVDIKGMEYHFDNPEEAKKFAERMAKELGGELKVEMGTLKVE,1.3 kcal/mol
13,VTVDIKGMEYHFDNPEEAKKFAERMAKELGGELKVEWGTLKVE,0.999 kcal/mol
14,VTVDIKGMEYHFDNPEEAKKFAERMAKELGGELKVEEGTLKVE,1.52 kcal/mol
15,VTVDIKGMEYHFDNPEEAKKFAERMAKELGGELKVEAGTLKVE,1.4 kcal/mol
16,VTVDIKGMEYHFDNPEEAKKFAERMAKELGGELKVESGTLKVE,1.38 kcal/mol
17,VTVDIKGMEYHFDNPEEAKKFAERMAKELGGELKVEQGTLKVE,1.46 kcal/mol
18,VTVDIKGMEYHFDNPEEAKKFAERMAKELGGELKVEKGTLKVE,1.45 kcal/mol
19,VTVDIKGMEYHFDNPEEAKKFAERMAKELGGELKVEVGTLKVE,1.14 kcal/mol
20,VTVDIKGMEYHFDNPEEAKKFAERMAKELGGELKVEIGTLKVE,1.14 kcal/mol
21,VTVDIKGMEYHFDNPEEAKKFAERMAKELGGELKVENMTLKVE,1.1 kcal/mol
22,VTVDIKGMEYHFDNPEEAKKFAERMAKELGGELKVENVTLKVE,0.725 kcal/mol
23,VTVDIKGMEYHFDNPEEAKKFAERMAKELGGELKVENDTLKVE,1.3 kcal/mol
24,VTVDIKGMEYHFDNPEEAKKFAERMAKELGGELKVENETLKVE,1.13 kcal/mol

row,Variant,folding stability dG
1,VTVDIKGMEYHFDNPEEAKKFAERMAKELGGELKVENSTLKVE,1.19 kcal/mol
2,VTVDIKGMEYHFDNPEEAKKFAERMAKELGGELKVENNTLKVE,1.68 kcal/mol
3,VTVDIKGMEYHFDNPEEAKKFAERMAKELGGELKVENHTLKVE,1.25 kcal/mol
4,VTVDIKGMEYHFDNPEEAKKFAERMAKELGGELKVENLTLKVE,1.02 kcal/mol
5,VTVDIKGMEYHFDNPEEAKKFAERMAKELGGELKVENCTLKVE,1.98 kcal/mol
6,VTVDIKGMEYHFDNPEEAKKFAERMAKELGGELKVENTTLKVE,1.17 kcal/mol
7,VTVDIKGMEYHFDNPEEAKKFAERMAKELGGELKVENFTLKVE,0.552 kcal/mol
8,VTVDIKGMEYHFDNPEEAKKFAERMAKELGGELKVENPTLKVE,0.815 kcal/mol
9,VTVDIKGMEYHFDNPEEAKKFAERMAKELGGELKVENKTLKVE,0.662 kcal/mol
10,VTVDIKGMEYHFDNPEEAKKFAERMAKELGGELKVENWTLKVE,0.438 kcal/mol
11,VTVDIKGMEYHFDNPEEAKKFAERMAKELGGELKVENITLKVE,0.967 kcal/mol
12,VTVDIKGMEYHFDNPEEAKKFAERMAKELGGELKVENYTLKVE,0.501 kcal/mol
13,VTVDIKGMEYHFDNPEEAKKFAERMAKELGGELKVENQTLKVE,1.21 kcal/mol
14,VTVDIKGMEYHFDNPEEAKKFAERMAKELGGELKVENRTLKVE,0.518 kcal/mol
15,VTVDIKGMEYHFDNPEEAKKFAERMAKELGGELKVENATLKVE,1.13 kcal/mol
16,VTVDIKGMEYHFDNPEEAKKFAERMAKELGGELKVPNGTLKVE,0.792 kcal/mol
17,VTVDIKGMEYHFDNPEEAKKFAERMAKELGGELKVKNGTLKVE,1.4 kcal/mol
18,VTVDIKGMEYHFDNPEEAKKFAERMAKELGGELKVSNGTLKVE,1.73 kcal/mol
19,VTVDIKGMEYHFDNPEEAKKFAERMAKELGGELKVMNGTLKVE,1.84 kcal/mol
20,VTVDIKGMEYHFDNPEEAKKFAERMAKELGGELKVLNGTLKVE,2.02 kcal/mol
21,VTVDIKGMEYHFDNPEEAKKFAERMAKELGGELKVNNGTLKVE,1.59 kcal/mol
22,VTVDIKGMEYHFDNPEEAKKFAERMAKELGGELKVTNGTLKVE,1.78 kcal/mol
23,VTVDIKGMEYHFDNPEEAKKFAERMAKELGGELKVRNGTLKVE,1.45 kcal/mol
24,VTVDIKGMEYHFDNPEEAKKFAERMAKELGGELKVVNGTLKVE,2.54 kcal/mol

row,Variant,folding stability dG
1,VTVDIKGMEYHFDNPEEAKKFAERMAKELGGELKVWNGTLKVE,1.52 kcal/mol
2,VTVDIKGMEYHFDNPEEAKKFAERMAKELGGELKVYNGTLKVE,1.86 kcal/mol
3,VTVDIKGMEYHFDNPEEAKKFAERMAKELGGELKVQNGTLKVE,1.89 kcal/mol
4,VTVDIKGMEYHFDNPEEAKKFAERMAKELGGELKVENGRLKVE,2.17 kcal/mol
5,VTVDIKGMEYHFDNPEEAKKFAERMAKELGGELKVENGCLKVE,1.89 kcal/mol
6,VTVDIKGMEYHFDNPEEAKKFAERMAKELGGELKVENGSLKVE,1.69 kcal/mol
7,VTVDIKGMEYHFDNPEEAKKFAERMAKELGGELKVENGPLKVE,0.866 kcal/mol
8,VTVDIKGMEYHFDNPEEAKKFAERMAKELGGELKVENGGLKVE,1.4 kcal/mol
9,VTVDIKGMEYHFDNPEEAKKFAERMAKELGGELKVENGMLKVE,2.24 kcal/mol
10,VTVDIKGMEYHFDNPEEAKKFAERMAKELGGELKVENGKLKVE,2.43 kcal/mol
11,VTVDIKGMEYHFDNPEEAKKFAERMAKELGGELKVENGALKVE,1.6 kcal/mol
12,VTVDIKGMEYHFDNPEEAKKFAERMAKELGGELKVENGDLKVE,1.17 kcal/mol
13,VTVDIKGMEYHFDNPEEAKKFAERMAKELGGELKVENGWLKVE,1.66 kcal/mol
14,VTVDIKGMEYHFDNPEEAKKFAERMAKELGGELKVENGLLKVE,2.13 kcal/mol
15,VTVDIKGMEYHFDNPEEAKKFAERMAKELGGELKVENGILKVE,2.81 kcal/mol
16,VTVDIKGMEYHFDNPEEAKKFAERMAKELGGELKVENGFLKVE,1.88 kcal/mol
17,VTVDIKGMEYHFDNPEEAKKFAERMAKELGGELKVENGNLKVE,1.84 kcal/mol
18,VTVDIKGMEYHFDNPEEAKKFAERMAKELGGELKVENGHLKVE,1.93 kcal/mol
19,VTVDIKGMEYHFDNPEEAKKFAERMAKELGGELKVENGELKVE,1.2 kcal/mol
20,VTVDIKGMEYHFDNPEEAKKFAERMAKELGGELKVENGYLKVE,1.95 kcal/mol
21,VTVDIKGMEYHFDNPEEAKKFAERMAKELGGELKVENGVLKVE,2.77 kcal/mol
22,VTVDIKGMEYHFDNPEEAKKFAERMAKELGGELKVENGQLKVE,1.91 kcal/mol
